Measurements taken from publication PMC9680610.

Molecular target: angiotensin-converting enzyme-2 (ACE2) with the neck domain (UniProt Q9BYF1)
Experiment: mass photometry; proteins measured alone, non-labelled, in solution; counts of monomer, dimer and trimer species; ACE2 at 10 nM

angiotensin-converting enzyme-2 (ACE2) with the neck domain (from UniProt Q9BYF1 18-740) (receptor)
stoichiometry N: 2
